From PMC5564220

What was measured:
[1] = biological target: Rvb1/his-Rvb2 complex (S. cerevisiae) (UniProt Q03940); assay: native MS
[2] = biological target: Rvb1ΔDII/Rvb2ΔDII complex (S. cerevisiae) (UniProt Q03940); assay: native MS

Rvb1ΔDII/Rvb2ΔDII complex, sequence (Q03940 whole entry, stated change not applied): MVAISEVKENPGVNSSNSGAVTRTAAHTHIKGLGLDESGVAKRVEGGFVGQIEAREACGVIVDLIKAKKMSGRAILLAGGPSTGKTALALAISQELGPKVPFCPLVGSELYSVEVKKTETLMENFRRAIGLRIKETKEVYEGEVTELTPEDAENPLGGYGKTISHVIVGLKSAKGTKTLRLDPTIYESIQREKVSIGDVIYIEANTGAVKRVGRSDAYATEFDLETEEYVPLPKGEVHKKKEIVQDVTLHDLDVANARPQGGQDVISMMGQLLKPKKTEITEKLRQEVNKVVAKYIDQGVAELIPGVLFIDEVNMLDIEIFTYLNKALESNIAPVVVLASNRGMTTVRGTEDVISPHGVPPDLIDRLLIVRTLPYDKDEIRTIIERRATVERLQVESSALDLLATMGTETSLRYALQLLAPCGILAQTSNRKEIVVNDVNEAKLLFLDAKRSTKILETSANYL
Rvb1ΔDII/Rvb2ΔDII complex, sequence (Q12464 whole entry, stated change not applied): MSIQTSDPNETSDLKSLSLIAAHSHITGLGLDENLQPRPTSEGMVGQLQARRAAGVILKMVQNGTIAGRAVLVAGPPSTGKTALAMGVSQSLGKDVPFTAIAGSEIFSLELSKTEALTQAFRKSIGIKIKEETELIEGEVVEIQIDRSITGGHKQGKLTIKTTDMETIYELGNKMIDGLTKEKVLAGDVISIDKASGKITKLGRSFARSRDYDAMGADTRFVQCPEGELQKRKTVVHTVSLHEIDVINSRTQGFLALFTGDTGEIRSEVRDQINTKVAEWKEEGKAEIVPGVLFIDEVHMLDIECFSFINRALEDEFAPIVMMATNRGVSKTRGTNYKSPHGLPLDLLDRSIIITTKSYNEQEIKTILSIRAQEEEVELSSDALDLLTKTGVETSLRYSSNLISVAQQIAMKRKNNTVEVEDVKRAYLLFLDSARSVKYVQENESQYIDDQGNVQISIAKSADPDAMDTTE

Row | percent of hexamers in the population [1] [%] | percent of the dodecamer dissociated into hexamers [1] [%] | percent of dodecamer in the population [2] [%] | Substance
1 | 0 | 14 |  | Rvb1/his-Rvb2 complex (from UniProt Q03940 1-463; Q12464 1-471)
2 |  |  | 3 | Rvb1ΔDII/Rvb2ΔDII complex (from UniProt Q03940 1-463; Q12464 1-471)
